Measurements as given in publication PMC12289762, “A prevalent MOCS2 variant in the Roma population is associated with a novel mild form of molybdenum cofactor deficiency” (European Journal of Pediatrics, 2025).

T1: MOCS2B wild-type (large subunit of MPT synthase) (human, UniProt O96007 1-188)
T1 construct: MOCS2B, large subunit of molybdopterin (MPT) synthase, human; encoded by MOCS2 transcript variant 3 (NM_004531.5); Cloned into pET15b, a vector that can add an N-terminal His tag; also called MOCS2B WT; WT MOCS2B; source: Escherichia coli BL21 (pET15b), purified (ammonium sulfate precipitation, size exclusion chromatography on Superdex 200)
T1 sequence (looked up): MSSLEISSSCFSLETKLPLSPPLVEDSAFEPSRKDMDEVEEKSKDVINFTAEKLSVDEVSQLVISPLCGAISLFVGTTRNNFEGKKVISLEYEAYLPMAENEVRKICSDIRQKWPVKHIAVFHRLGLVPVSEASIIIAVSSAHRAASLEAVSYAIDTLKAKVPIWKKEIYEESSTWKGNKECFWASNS

T2: MOCS2B p.Leu19Phe variant (human, UniProt O96007 1-188, p.Leu19Phe)
T2 construct: MOCS2B, large subunit of molybdopterin (MPT) synthase, human, patient variant c.57A>T (NM_004531.5; p.Leu19Phe), rs776441627; Variant found in patients (natural variant); Cloned into pET15b; also called MOCS2B L19F; MOCS2B Leu19Phe; source: Escherichia coli BL21 (pET15b), purified (ammonium sulfate precipitation, size exclusion chromatography on Superdex 200)
T2 sequence (looked up): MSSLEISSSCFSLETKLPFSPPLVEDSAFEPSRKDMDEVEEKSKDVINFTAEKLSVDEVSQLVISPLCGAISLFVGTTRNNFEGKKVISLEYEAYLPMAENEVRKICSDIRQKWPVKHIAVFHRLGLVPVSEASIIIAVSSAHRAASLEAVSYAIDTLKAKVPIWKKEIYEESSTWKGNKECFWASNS


Assays:
[1] = target: T1, MOCS2B wild-type (large subunit of MPT …); test: ITC; VP-ITC; 20-50 uM MOCS2B in the sample cell (1.5 mL), 200-500 uM MOCS2A in the syringe; 10 mM Tris-HCl, 250 mM NaCl, pH 8.0; n = 3 experiments; conditions: both partners purified
[2] = target: T2, MOCS2B p.Leu19Phe variant; test: as above; conditions: both partners purified
[3] = target: T2, MOCS2B p.Leu19Phe variant; test: cell-based or functional assay

Row | Kd [1] [µM] | stoichiometry N [1] | Kd [2] [µM] | in vitro MPT synthesis activity (500 pmol cPMP, 200 pmol MOCS2B, 0-500 pmol MOCS2A; HPLC Form A method), relative to WT MOCS2A/B [3] | Binder
1 | 0.359 ± 0.047 | 1.15 ± 0.2 | 0.114 ± 0.016 | – | MOCS2A wild-type (small subunit of MPT synthase) (natural protein, human, UniProt O96033 1-88, looked up, thiocarboxylated C-terminal tail, MOCS2A, small subunit of molybdopterin (MPT) synthase, human; encoded by MOCS2 transcript variant 1 (NM_176806.4); also called MOCS2A WT; WT MOCS2A) MVPLCQVEVLYFAKSAEITGVRSETISVPQEIKALQLWKEIETRHPGLADVRNQIIFAVRQEYVELGDQLLVLQPGDEIAVIPPISGG
2 | 2.8 ± 0.3 | – | 7.4 ± 2.1 | ~20 % of WT | MOCS2A p.Ile82Phe variant (natural protein, human, UniProt O96033 1-88, looked up, thiocarboxylated C-terminal tail, MOCS2A, small subunit of molybdopterin (MPT) synthase, human, patient variant c.244A>T (NM_176806.4; p.Ile82Phe), rs776441627; Variant found in patients (natural variant); also called MOCS2A I82F; MOCS2 p.Ile82Phe) MVPLCQVEVLYFAKSAEITGVRSETISVPQEIKALQLWKEIETRHPGLADVRNQIIFAVRQEYVELGDQLLVLQPGDEIAVFPPISGG
